hGLP-1 cAMP* data for three substances are collected here from US20100256056A1.

Assay [1] concerns the target human GLP-1 (hGLP-1) receptor (human) (UniProt P43220).
Assay [2] shares this target. This is another data set of the same source.

Like-named read-outs stand apart in the source and are kept apart here.

human GLP-1 (hGLP-1) receptor (human), sequence (P43220 24-463): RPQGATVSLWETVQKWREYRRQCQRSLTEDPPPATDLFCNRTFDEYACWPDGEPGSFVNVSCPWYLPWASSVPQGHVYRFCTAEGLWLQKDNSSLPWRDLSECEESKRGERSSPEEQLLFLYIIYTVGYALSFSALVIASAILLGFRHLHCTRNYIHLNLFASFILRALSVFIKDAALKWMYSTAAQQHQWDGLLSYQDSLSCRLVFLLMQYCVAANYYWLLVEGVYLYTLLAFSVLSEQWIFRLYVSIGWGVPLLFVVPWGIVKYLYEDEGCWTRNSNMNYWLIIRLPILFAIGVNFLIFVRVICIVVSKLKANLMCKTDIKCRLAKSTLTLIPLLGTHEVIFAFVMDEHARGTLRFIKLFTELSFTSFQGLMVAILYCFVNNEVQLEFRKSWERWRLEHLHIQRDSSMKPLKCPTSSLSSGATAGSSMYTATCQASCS

Turning to “[Aib^2,29, Nle^14, Arg^30]Exendin-4(1-30)-NH2 (peptide)”, the hGLP-1 cAMP* in assay [1] was determined as 95.
In assay [2], “[Aib^2, Nle^14, β-Ala^29, Arg^30]Exendin-4(1-30)-NH2 (peptide)” came in with a hGLP-1 cAMP* of 90.
For “[Aib^2, Nle^14]Exendin-4(1-39)-NH2 (peptide)”, the hGLP-1 cAMP* in assay [2] amounted to 62.
